{"source": "paper PMC7714896", "about": "(Signal Transduction and Targeted Therapy, 2020)", "binders": {"B1": {"name": "recombinant human CD147 extracellular fragment (His-CD147) (domain or fragment)", "chain": "EPGTVFTTVEDLGSKILLTCSLNDSATEVTGHRWLKGGVVLKEDALPGQKTEFKVDSDDQWGEYSCVFLPEPMGTANIQLHGPPRVKAVKSSEHINEGETAMLVCKSESVPPVTDWAWYKITDSEDKALMNGSESRFFVSSSQGRSELHIENLNMEADPGQYRCNGTSSKGSDQAIITLRVRSHLAAL"}}, "target": "T1, receptor-binding domain (RBD) of SARS-CoV-2 spike protein (SARS-CoV-2, UniProt P0DTC2)", "T1 construct": "source: bought: GenScript", "assay": "SPR; BIAcore 3000; […], flow 15 μl/min, […]", "conditions": "both partners purified"}
{"binder": "B1", "values": [{"measurement": "Kd", "value": 185, "unit": "nM"}]}
